According to the supplement of paper PMC7125110:
± gives the standard error. Fewer inactive variants are shown than the library holds.

B1: glmS ribozyme (parent)
chain: AUAAAAGCGCCAGAACUACAGAAAUGUAGUUGACGAGGAGGAGGUUUAUCGAAUUUUCGGCGGAUGCCUCCAAA

Variants of: B1
Experiment: self-cleavage kobs at 2500 uM GlcN6P; higher = faster cleavage; RNA array
Settings: with glucosamine-6-phosphate
How it was run: (§1)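 Barcoded ribozyme variants on sequenced MiSeq chips were transcribed in situ by E. coli RNA polymerase and followed at 37 °C through a hybridised Cy3 probe. Glucosamine-6-phosphate at 40 μM to 10 mM in HEPES/KCl/Mg(OAc)2 buffer was flowed in, and tiles were imaged over ~14 h. Signals were normalised to baseline and to non-cleaving reference variants, and per-tile medians were fit to one- or two-exponential decays to give kobs. Weighted Michaelis–Menten fits across concentrations gave kcat and KM.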

Variant	self-cleavage kobs at 2500 uM GlcN6P [s⁻¹]
AUAAAAGCGCCAGAACUACAGAAAUGUAAUUGACGAGGAGGAGGUUUAUCGAAUAUUCGGCGGAUGUCUCCAAA	0.000242 ± 4.9e-05
AUAAAAGCGCCAGAACUACAGAAAUGUACUUGACGAGGAAGUGGUUUAUCGAAUUUUCGUUGGAUGCCUCCAAA	< 1e-05
AUAAAAGCGCCAGAACUACAGAAAUGUAAUUGACGAGGAGGAGGUUUAUCGAAUUUUCGGCGAAUGCCUCCAAA	< 1e-05
AUAAAAGCGCCAGAACUACAGAAAUGUACUGGACGAGGAGGAGGUUUAUCGAAUUUUCGGCGGAUGCCUCCAAA	< 1e-05
AUAAAAGCGCCAGAACUACAGAAAUGUAGAUGACGAGAGGGAGGUUUAUCGAAUUUUAGGCGCAUGCCUCAAAA	< 1e-05
AUAAAAGCGCCAGAACUACAGAAAUUUAGUUGUCGAGGAGGAGGUUUAUCGAAUUUUCGGCGGAUGCCUCCAAA	0.000111 ± 2.1e-05
AUAAAAGCGCCAGAACUACAGAAAUGUACUUGACGAGGAGGAGGUUUAUCGAAUUUUGCGAGAAUGCCUCCAAA	< 1e-05
AUAAAAGCGCCAGAACUACAGAAAUGUAUAUGGCGAUGAGGAGGUUUAUCGAAUUUUCGGCGGAUGCCUCCAAA	< 1e-05
AUAAAAGCGCCAGAACUACAGAAAUGUACUUGAUGAUGAGGAGGUUUAUCGAAUUUUCGGCGGAUGCCUUCAAA	0.000116 ± 3.3e-05
AUAAAAGCGCCAGAACUACAGAAAUGUAUUUCACGAGGAGGAGGUUCAUCGAAUUUUCGGCGGAUGGCUCCAAA	< 1e-05
AUAAAAGCGCCAGAACUACAGAAAUGUAUUUGACGAGCAGGAGGUUUAUCGAAUUGUCGGCGGAUGCCUCCAAA	< 1e-05
AUAAAAGCGCCAGAACUACAGAAAUGUAUUUGACGAGUAGGAGGUUUAUCGAAUUUUCGGCGGAUUCAGCCAAA	0.000147 ± 5.8e-05
AUAAAAGCGCCAGAACUACAGAAAUGUAAUUCAAGAGGAGGAGGUUUGUCGAAUUUACGGCGGAUGCCUCCAAA	< 1e-05
AUAAAAGCGCCAGAACUACAGAAAUGUAGAUGACGAGGGGGAGGUUUAUCGAAUUUUCGGCGGAUGCCGCCAAA	5.54e-05 ± 2.2e-05
AUAAAAGCGCCAGAACUACAGAAAUGUACUUGACGAGGAGGAGCUUUAUUGAAUUUUCGGCGGAUUCCUCCAAA	< 1e-05
AUAAAAGCGCCAGAACUACAGAAAUGUAGAUCAGGAGGAGGAGGUUUAUCGAAUAUUCGGCGGAUGCCUCCAAA	< 1e-05
AUAAAAGCGCCAGAACUACAGAAAUGUAUUUGACGAGGAGGAGGAUUAUCGAACCUUCGGCCGAUGCCUCCAAA	< 1e-05

Variant	self-cleavage kobs at 2500 uM GlcN6P [s⁻¹]
AUAAAAGCGCCAGAACUACAGAAAUGUAAUUGACGAGGAGGAGGUUUAUCGAAUUUUCGGCGGAAGCCUCAAAA	4.59e-05 ± 1.7e-05
AUAAAAGCGCCAGAACUACAGAAAUGUAAUUGACGAGGAGGACGUUUAUCGAAUUUUCGCCGGAUGCCUCCAAA	< 1e-05
AUAAAAGCGCCAGAACUACAUAAAUGUAGUUGACGAGGAGGAGGUUUAUCGAAUUUCCGGCGGAUGCCUCCAAA	9.36e-05 ± 1.4e-05
AUAAAAGCGCCAGAACUACAGAAAUGUAUUUGACGAGGAGGAGGUUUAUCGAAAUUUAGGCGGAUGCCUCCAAA	0.000128 ± 3.8e-05
AUAAAAGCGCCAGAACUACAGAAAUGUAGAUGACGAGGAGGAGGUGUAUCGAAUUUUCGGCGGAUGCGUCCAAA	0.000143 ± 6.7e-05
AUAAAAGCGCCAGAACUACAGAAAUGUAUUUGACGAGGAGGUGGUUUAUCGAAUUUUCGGCGGAUGCAUCUAAA	< 1e-05
AUAAAAGCGCCAGAACUACAGAAAUGUAUUUGACGAGGUGGAGGUUUAUCGAAUUUUCGGCGGAUGGCUCCAAA	0.00033 ± 9.8e-05
AUAAAAGCGCCAGAACUACAGAAAUCUAGUUGACGAGGAGGAGGUUCAUCGAAUUUUCGCCGGAUGCCUCCAAA	< 1e-05
AUAAAAGCGCCAGAACUACAGAAAUGUAUUUUACGAGGAGGAGGUUUAUGGAAUUUUCGGCGGAUGCCUCCAAA	6.06e-05 ± 2.9e-05
AUAAAAGCGCCAGAACUACAGAAAUGUAUUUGACGAGGAGGAGGUUUAUCGAAAUUUCGGCGGAUGCCUACAAA	6.05e-05 ± 3e-05
AUAAAAGCGCCAGAACUACAGAAAUGUAAUUGACGAGGUUGAGGUUUAUCGAAUUUUCGGCGGAUGCCUCCAAA	0.000177 ± 3.8e-05
AUAAAAGCGCCAGAACUACAGAAAUGUAAUUGACGAGGAGAAGGUUUCUCGAAUUUUCGGCGGAUGCCUCGAAA	< 1e-05
AUAAAAGCGCCAGAACUACCGAAAUGUAGUUGACGAGGAGGAGGUUUGUCGAAUUUUCGGCGGAUGCCUCCAAA	0.000134 ± 2.6e-05
AUAAAAGCGCCAGAACUACAGAAAUGUACUUGACGAGGAGAAGGUUUAUCGAAUUUUCGGCGGAUGCCUCCAAA	7.06e-05 ± 3.1e-05
AUAAAAGCGCCAGAACUACAGAAAUGUAGAUCACGAGGAGGAGGUUUAUCGAAUUUUCGGCGGAUGCCUCCAAA	6.18e-05 ± 2.8e-05
AUAAAAGCGCCAGAACUACAGAAAUGUAAUUGACGAGGAGGAGGUUUAUAGAAUUUUCGGCGGAUGGCUCCAAA	8.63e-05 ± 3.6e-05

Variants of: B1
Experiment: self-cleavage kobs at 10000 uM GlcN6P; higher = faster cleavage; RNA array
Settings: with glucosamine-6-phosphate
How it was run: as §1

Variant	self-cleavage kobs at 10000 uM GlcN6P [s⁻¹]
AUAAAAGCGCCAGAACUACAGAAAUGUAGAUGACGAGAGGGAGGUUUAUCGAAUUUUAGGCGCAUGCCUCAAAA	< 1e-05
AUAAAAGCGCCAGAACUACAGAAAUGUACUUGAUGAUGAGGAGGUUUAUCGAAUUUUCGGCGGAUGCCUUCAAA	3.91e-05 ± 1.8e-05
AUAAAAGCGCCAGAACUACAGAAAUGUACUUGACGAGGAGAAGGUUUAUCGAAUUUUCGGCGGAUGCCUCCAAA	5.29e-05 ± 2.1e-05
AUAAAAGCGCCAGAACUACAGAAAUGUAGAUCACGAGGAGGAGGUUUAUCGAAUUUUCGGCGGAUGCCUCCAAA	0.000203 ± 5.8e-05
